This experiment has as its target Negative control peptide 2014 (1907 with L145E and L152E) (UniProt P49023 141-153, S143 (i,i + 7 staple position), i,i + 7 all-hydrocarbon staple as in 1907). The experiment is described as follows: SPR. In general terms: In SPR one partner is held on a chip, and binding of the other changes the refractive index at the surface.

Bounds are passed on as bounds.

B1: Biotinylated AviTag FAK FAT protein (domain or fragment)
chain: MAAAYLDPNLNHTPNSSTKTHLGTGMERSPGAMERVLKVFHYFESNSEPTTWASIIRHGDATDVRGIIQKIVDSHKVKHVACYGFRLSHLRSEEVHWLHVDMGVSSVREKYELAHPPEEWKYELRIRYLPKGFLNQFTEDKPTLNFFYQQVKSDYMLEIADQVDQEIALKLGCLEIRRSYWEMRGNALEKKSNYEVLEKDVGLKRFFPKSLLDSVKAKTLRKLIQQTFRQFANLNREESILKFFEILSPVYRFDKECFKCALGSSWIISVELAIGPEEGISYLTDKGCNPTHLADFTQVQTIQYSNSEDKDRKGMLQLKIAGAPEPLTVTAPSLTIAENMADLIDGYCRLVNGTSQSFIIRPQKEGERALPSIPKLANSEKQGMRTHAVSVSETDDYAEIIDEEDTYTMPSTRDYEIQRERIELGRCIGEGQFGDVHQGIYMSPENPALAVAIKTCKNCTSDSVREKFLQEALTMRQFDHPHIVKLIGVITENPVWIIMELCTLGELRSFLQVRKYSLDLASLILYAYQLSTALAYLESKRFVHRDIAARNVLVSSNDCVKLGDFGLSRYMEDSTYYKASKGKLPIKWMAPESINFRRFTSASDVWMFGVCMWEILMHGVKPFQGVKNNDVIGRIENGERLPMPPNCPPTLYSLMTKCWAYDPSRRPRFTELKAQLSTILEEEKAQQEERMRMESRRQATVSWDSGGSDEAPPKPSRPGYPSPRSSEGFYPSPQHMVQTNHYQVSGYPGSHGITAMAGSIYPGQASLLDQTDSWNHRPQEIAMWQPNVEDSTVLDLRGIGQVLPTHLMEERLIRQQQEMEEDQRWLEKEERFLKPDVRLSRGSIDREDGSLQGPIGNQHIYQPVGKPDPAAPPKKPPRPGAPGHLGSLASLSSPADSYNEGVKLQPQEISPPPTANLDRSNDKVYENVTGLVKAVIEMSSKIQPAPPEEYVPMVKEVGLALRTLLATVDETIPLLPASTHREIEMAQKLLNSDLGELINKMKLAQQYVMTSLQQEYKKQMLTAAHALAVDAKNLLDVIDQARLKMLGQTRPH
modifications: biotin (biotinylated AviTag)
The Kd is the constant that tells how readily two partners part at equilibrium. For B1, the Kd was > 200 µM.

These data come from paper PMC11871066 (2025).
